Test system: MS2 coat protein
Experiment: apparent KD of MS2 coat protein, switch ON state; designed switch direction (-1 OFF switch, 1 ON switch): 1; higher = weaker reporter binding
Details: FMN input: 0 or 200 uM; Eterna round: R93 (includes R88 designs)
Procedure, shortened: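 Values are apparent KD, taken as the median for each design of fits to normalised binding curves from individual clusters. The designed RNA switches were transcribed on-chip from Illumina sequencing clusters and exposed to SNAP-549-labelled MS2 coat protein at twofold increasing amounts from 0.7 or 1.5 nM to 3 µM. Titration used 100 mM Tris-HCl pH 7.5, 80 mM KCl and 4 mM MgCl2, without or with constant ligand.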

“AAAACCUGCGUCGAGGAUAUGUAGCCCACUACAUGAGGAUCACCCAUGUGGAUCUUACUGGGUCGACAGAAGGUGAAAGUAAGGC [Ustionon]” and “GGGAGGAAGAGAGAGGAUAUCCAAAGGAAAACAUGAGGAUCACCCAUGUAAAAGGUAGGAAAUUGGGAGAAGGCUCAAGAGAUGG [salish99-ss2-052]” are within 1.5-fold of each other in “apparent KD of MS2 coat protein” value: 49.3 nM for the first, 59 nM for the second.

Going from “AACAAUCUAUCUGAGGAUAUGUGUCGAAAGACAUGAGGAUCACCCAUGUAAAAACAUGAAAAAACACAGAAGGCAGAUAGAUUGA [SS2: 1146]” to “AAAAGACAUGAGGAUCACCCAUGUAGGCCAAAGCAAGGAUAUAGGCCACAGGGACGCGGACUAGAAGGUGCACGGC [Orerorge]”, the “apparent KD of MS2 coat protein” value falls from 62.6 nM to 25.2 nM (2.5-fold).

Going from “AGAAAUAAAAGGCAGGAUAUCCAAAAGAAAACAUGAGGAUCACCCAUGUAAAAGAAAAUAAAAUGGGAGAAGGGCCAAAAUAAAG [Fisker 73]” to “UAAUAAUAAACCAAGGAUAUGGAGUAUAGCACAUGAGGAUCACCCAUGUGUAGCGUGGGUUAGUACCAGAAGGUGGAGUGAAAUG [JR_SS002_Sub1001]”, the “apparent KD of MS2 coat protein” value rises from 13.1 nM to 87.8 nM (6.7-fold).

Compared with “AAAUAAAGGACUGAGGAUAUACCACAUGAAACAUGAGGAUCACCCAUGUAGAAAUACAAAGGGUGGUAGAAGGUAGUCCACAAAC [Same State 2.5 so lets mod hyphema)]”, “AAAACACAUGAGGAUCACCCAUGUAAAAACAUGAGAGGAUAUGCUUGGAAAACAUGCUAUGCAGAAGGCUCAAGUG [SS1 - 9]” is 2.5-fold lower in “apparent KD of MS2 coat protein” value: 45.9 nM for the first, 18.2 nM for the second.

Compared with “AGAAAUAAAAGCUAGGAUAUCCAAAAGAAAACAUGAGGAUCACCCAUGUAAAAGAAAAUAAAGUGGGAGAAGGAGCAAAAUAAGA [Starry modified]”, “AACAAUCUAUCUGAGGAUAUGUGUCGAAAGACAUGAGGAUCACCCAUGUGAAAACAUGAAAAAACACAGAAGGCAGAUAGAUUGA [SS2: 1147]” is 1.9-fold higher in “apparent KD of MS2 coat protein” value: 18 nM for the first, 33.6 nM for the second.

First: AAAAAACAUGAGGAUCACCCAUGUAAAAAAAUGGGAGGAUAUACAAAAACAAAAAAAAAAGUAGAAGGCCUGAAAA [same state 9]
Second: AAGGAACAUGAGGAUCACCCAUGUAAAAAAUAUGGAGGAUAUACUAGAAGAAACAAAAUAGUAGAAGGCCAAAAAA [75%, Ex sub1, 30]
The “apparent KD of MS2 coat protein” value of the first is 2.5-fold higher: 41.3 nM for the first, 16.5 nM for the second.

“CGGAAAGAGAGAGAGGAUAUCCAAAGGAAAACAUGAGGAUCACCCAUGUAGAAGGUAGGAAAUUGGGAGAAGGCUCAAGAGAGAG [salish99-ss2-132]” and “CAAAACAAAACAUAGGAUAUCAAAACAAAAACAUGAGGAUCACCCAUGUGGAAACAUGAGAAGGAUGAGAAGGAAAACAAAACAA [Meechl SS2 R2 m7]” are within 1.5-fold of each other in “apparent KD of MS2 coat protein” value: 25.3 nM for the first, 25 nM for the second.

Going from “CUGGACCUAGGAUAGGAUAUGUGAAUAAUUACAUGAGGAUCACCCAUGUCCAUUUAUAUGGGAACAUAGAAGGGUUUUGGUUAAG [Mat - Same state - Malcolm Mod - D147]” to “AAGAAACAUGAGGAUCACCCAUGUACCCAAAAGGGAGGAUAUCCGAAAGAAAGAAAGAAAGGAGAAGGCCCAUGAA [Xerxes II]”, the “apparent KD of MS2 coat protein” value falls from 103 nM to 12.6 nM (8.2-fold).

First: AAAUAAAGGACUGAGGAUAUACCACAUGAAACAUGAGGAUCACCCAUGUAGAAAUACAAAGGGUGGUAGAAGGCAGUCCACAAAC [Same State 2.5g ( so lets mod hyphema)]
Second: GUGGUGUAGGUACAGGAUAUGUUGCUCGUAACAUGAGGAUCACCCAUGUACCUAUGAGAUUAAAUGCAGAAGGGUGCACACCACG [Alage]
The “apparent KD of MS2 coat protein” value of the first is 2.5-fold lower: 15 nM for the first, 37.3 nM for the second.

Compared with “CGGAAGGAGAGGGAGGAUAUCCAAAGGAAAACAUGAGGAUCACCCAUGUAGAAGGUAGGAAAUUGGGAGAAGGCUCAAGAGAGAG [salish99-ss2-131]”, “AAAAAACAUGAGGAUCACCCAUGUCGAAAGACGUGAGGAUAUGUACAGACUUCGGUCUGUACAGAAGGCAUGAAAA [SS1 - 1057]” is 2.5-fold higher in “apparent KD of MS2 coat protein” value: 32.3 nM for the first, 79.5 nM for the second.

First: GUGGACGUAGGAUAGGAUAUAUGAAUAAUUACAUGAGGAUCACCCAUGUCCAUUUAUAUGGGAACAUAGAAGGGUUGUGGUUAAC [Mat - Same state - Malcolm Mod - D132]
Second: GGCAGGAAGAGAGAGGAUAUCCAAAGGAAAACAUGAGGAUCACCCAUGUAAAAGGUAGGAAAUUGGGAGAAGGCUCAAGAGAGAG [salish99-ss2-099]
The “apparent KD of MS2 coat protein” value of the first is 12-fold higher: 364 nM for the first, 30.9 nM for the second.

Going from “GGGAGACAUGAGGAUCACCCAUGUGAGAAGAGGCGAGGAUAUCGAAAGAAAGAAGAGAAACGAGAAGGCGCGAGCA [salish99-SS1-052]” to “CAUAGACAUGAGGAUCACCCAUGUAGAAUUAUGGGAGGAUAUACAAAGACGAGAGUCAGAGUAGAAGGCCUAGGAC [salish99-ss1-164]”, the “apparent KD of MS2 coat protein” value falls from 39 nM to 18.9 nM (2.1-fold).

Compared with “AAUAUACAUGAGGAUCACCCAUGUUAGGUGGGUCAAGGAUAUCAAAAUAAAUAAAGAACAUGAGAAGGUGAAUAAA [JR_SS001_Sub018]”, “GAAAAACAUGAGGAUCACCCAUGUGUAAAUAUGGAAGGAUAUACGAAGACGUAAGUCAAAGUAGAAGGUCUAAAAG [Garnet 99]” is 11-fold lower in “apparent KD of MS2 coat protein” value: 207 nM for the first, 19.3 nM for the second.

Going from “GGAAGACAUGAGGAUCACCCAUGUGGGAAUAUGGGAGGAUAUACAAAGACGAGAGUCAGAGUAGAAGGCCUAGGAU [salish99-ss1-100]” to “AUAACACAUGAGGAUCACCCAUGUAGAUACCCGUCAGGAUAUGCAAAGAAAAUAAACAAAGCAGAAGGGACAAUAA [SS 1 Tesla 2]”, the “apparent KD of MS2 coat protein” value falls from 44 nM to 21.2 nM (2.1-fold).

First: AAAAAACAUGAGGAUCACCCAUGUCUUUUGACAUGAGGAUAUGUACAGACUUCGGUCUGUACAGAAGGCAUAAAAA [SS1 - 1030]
Second: AAAAGACAUGAGGAUCACCCAUGUGAAAACGUAGGAGGAUAUGUAUGGAAACCAGACUGUACAGAAGGCCUUUGUC [SS1 - 75]
The “apparent KD of MS2 coat protein” value of the first is 4.7-fold higher: 109 nM for the first, 23 nM for the second.

Compared with “GAGAUACAUGAGGAUCACCCAUGUUGAAACAUGGGAGGAUAUACAAGGUCGAAAGAUAAGGUAGAAGGCCUAAAAG [LROPPY Same State 1 - v04_deltaG=3.]”, “AGAAUAAAAAGACAGGAUAUCCAAAAGAAAACAUGAGGAUCACCCAUGUAAAAAAAAAUAAAAUGGGAGAAGGGUCAAAAUAAAG [Mat - Same State 2 - JL mod - D69]” is 2.1-fold lower in “apparent KD of MS2 coat protein” value: 37.6 nM for the first, 18 nM for the second.

First: AGUAAACAUGAGGAUCACCCAUGUGGUGGCCCAUGAGGAUAUCCAUGCGCAAUGCGCAUAGGAGAAGGCAUAGCCA [Enenerla]
Second: UUUCAUUACACGAAGGAUAUCGCUUUUCAGACAUGAGGAUCACCCAUGUAGUAGAUUUCCCUGUUCGAGAAGGUCGCGGGUGAAC [JR_SS002_Sub603]
The “apparent KD of MS2 coat protein” value of the first is 2.4-fold higher: 125 nM for the first, 51.5 nM for the second.

“AAAUAAAUGACUGAGGAUAUAUCGAUGAAAACAUGAGGAUCACCCAUGUGAUAAUAAAAAGGGUGGUAGAAGGUAGUCAACAAAC [Mod 12 of Pariah 4 by Hyphema in Round 1]” and “AGGAAACAUGAGGAUCACCCAUGUAAAUAUGGGCGAGGAUAUCGAAAGAAAAGAAAGAAACGAGAAGGCGCAAAAG [GU on the end]” are within 1.5-fold of each other in “apparent KD of MS2 coat protein” value: 55.5 nM for the first, 49.2 nM for the second.

Compared with “GAAAAACAUGAGGAUCACCCAUGUAGAAAUAUGGGAGGAUAUACAAAGACGAAAGUCAAAGUAGAAGGCCUGAAGA [Mat - Same State 1 - JL mod - D91]”, “CGCAAACAUGAGGAUCACCCAUGUCAUUGUGAUCAAGGAUAUGGGUUCCGAAGUGGAACACCAGAAGGUGAGUAGU [Sozaer]” is 8.3-fold higher in “apparent KD of MS2 coat protein” value: 27.1 nM for the first, 224 nM for the second.

First: AGGAAACAUGAGGAUCACCCAUGUAAAAAUAUCACAGGAUAUGGAAACACGAAAGUGAAACCAGAAGGGUGAAAAG [77%, Mat - Mod of Eli, 13]
Second: AAGAAACAUGAGGAUCACCCAUGUAGAAACAUGGGAGGAUAUACGAAGACGAAAGUCAAAGUAGAAGGCCUAAAAA [Garnet 90]
The “apparent KD of MS2 coat protein” value of the first is 6-fold lower: 13.2 nM for the first, 78.8 nM for the second.

Going from “AAAAAACAUGAGGAUCACCCAUGUGAGAACAUGGGAGGAUAUACGAGGACGAGAGUCAAGGUAGAAGGCCUAAGAA [Garnet 68]” to “AACAAUCUAUCUGAGGAUAUCAUGUCAAAGACAUGAGGAUCACCCAUGUCCAGGAAAACUGGUCAUGAGAAGGCAGAUAGAUUGA [SS2: 1111]”, the “apparent KD of MS2 coat protein” value falls from 268 nM to 51.3 nM (5.2-fold).

In the case of “AGGAAACAUGAGGAUCACCCAUGUAAAAUAAUGGGAGGAUAUGCGAAAAGAAAAAGAAAAGCAGAAGGCCUAAGAA [62%, Something completely different, 4]”, the “apparent KD of MS2 coat protein” value is reported as 18.6 nM.

From the supplement of paper PMC9170038
